From patent publication EP4748858A1

B1: VHH6 CAR (protein)
chain: DVQLQESGGGLVQAGGSLRLSCAVSGYPYSSYCMGWFRQAPGKEREGVAAIDSDGRTRYADSVKGRFTISQDNAKNTLYLQMNRMKPEDTAMYYCAARFGPMGCVDLSTLSFGHWGQGTQVTVSITGGGGSGGGGSGGGGSGGGGSDVQLQESGGGLVQAGGSLRLSCAVSGYPYSSYCMGWFRQAPGKEREGVAAIDSDGRTRYADSVKGRFTISQDNAKNTLYLQMNRMKPEDTAMYYCAARFGPMGCVDLSTLSFGHWGQGTQVTVSITAAADYKDDDDKIEVMYPPPYLDNEKSNGTIIHVKGKHLCPSPLFPGPSKPFWVLVVVGGVLACYSLLVTVAFIIFWVRSKRSRLLHSDYMNMTPRRPGPTRKHYQPYAPPRDFAAYRSRVKFSRSADAPAYQQGQNQLYNELNLGRREEYDVLDKRRGRDPEMGGKPRRKNPQEGLYNELQKDKMAEAYSEIGMKGERRRGKGHDGLYQGLSTATKDTYDALHMQALPPR
B2: AHP19484-VHH3 CAR (protein)
chain: QVQLVESGGGLVKPGGSLRLSCAASGSSFHFAFMGWYRQAPGKQRELVADISPGNSTNYADPVKGRFTISRDNAKNSLYLQMNSLRAEDTAVYFCRDLRSWGAWGQGTLVTVSSGGGSGGGSGGGSGGGSQVQLVESGGGLVKPGGSLRLSCAASGSSFHFAFMGWYRQAPGKQRELVADISPGNSTNYADPVKGRFTISRDNAKNSLYLQMNSLRAEDTAVYFCRDLRSWGAWGQGTLVTVSSAAADYKDDDDKIEVMYPPPYLDNEKSNGTIIHVKGKHLCPSPLFPGPSKPFWVLVVVGGVLACYSLLVTVAFIIFWVRSKRSRLLHSDYMNMTPRRPGPTRKHYQPYAPPRDFAAYRSRVKFSRSADAPAYQQGQNQLYNELNLGRREEYDVLDKRRGRDPEMGGKPRRKNPQEGLYNELQKDKMAEAYSEIGMKGERRRGKGHDGLYQGLSTATKDTYDALHMQALPPR
B3: AHP19485-VHH1 CAR (protein)
chain: EVQLVESGGGLVQPGGSLRLSCAASERIFSIHAMGWYRQAPGKQRELVSSITIGGSTHYADSVKGRFTISRDNSKNTLYLQMNSLRAEDTAVYYCNSMLLAGTVGGSWGQGTLVTVSSGGGSGGGSGGGSGGGSEVQLVESGGGLVQPGGSLRLSCAASERIFSIHAMGWYRQAPGKQRELVSSITIGGSTHYADSVKGRFTISRDNSKNTLYLQMNSLRAEDTAVYYCNSMLLAGTVGGSWGQGTLVTVSSAAADYKDDDDKIEVMYPPPYLDNEKSNGTIIHVKGKHLCPSPLFPGPSKPFWVLVVVGGVLACYSLLVTVAFIIFWVRSKRSRLLHSDYMNMTPRRPGPTRKHYQPYAPPRDFAAYRSRVKFSRSADAPAYQQGQNQLYNELNLGRREEYDVLDKRRGRDPEMGGKPRRKNPQEGLYNELQKDKMAEAYSEIGMKGERRRGKGHDGLYQGLSTATKDTYDALHMQALPPR
B4: AHP19509-VHH1 CAR (protein)
chain: EVQLVESGGGLVQPGGSLRLSCAASGGTFNRYTMGWFRQAPGKEREFVSAISWSGGSTDYADSVKGRFTISRDNSKNTLYLQMNSLRAEDTAVYYCDTDRMPYRPVAAGILSWEANWGQGTLVTVSSGGGSGGGSGGGSGGGSEVQLVESGGGLVQPGGSLRLSCAASGGTFNRYTMGWFRQAPGKEREFVSAISWSGGSTDYADSVKGRFTISRDNSKNTLYLQMNSLRAEDTAVYYCDTDRMPYRPVAAGILSWEANWGQGTLVTVSSAAADYKDDDDKIEVMYPPPYLDNEKSNGTIIHVKGKHLCPSPLFPGPSKPFWVLVVVGGVLACYSLLVTVAFIIFWVRSKRSRLLHSDYMNMTPRRPGPTRKHYQPYAPPRDFAAYRSRVKFSRSADAPAYQQGQNQLYNELNLGRREEYDVLDKRRGRDPEMGGKPRRKNPQEGLYNELQKDKMAEAYSEIGMKGERRRGKGHDGLYQGLSTATKDTYDALHMQALPPR

Target: PE-Labelled Human CD7 Protein, His Tag (ACROBiosystems, Cat# CD7-HP2E3) (human) (UniProt P09564)
Assay: flow cytometry of CAR-T cells stained with PE-labelled human CD7 protein, His tag

Chain of PE-Labelled Human CD7 Protein, His Tag (ACROBiosystems, Cat# CD7-HP2E3) (human) (P09564 26-180 limits assumed): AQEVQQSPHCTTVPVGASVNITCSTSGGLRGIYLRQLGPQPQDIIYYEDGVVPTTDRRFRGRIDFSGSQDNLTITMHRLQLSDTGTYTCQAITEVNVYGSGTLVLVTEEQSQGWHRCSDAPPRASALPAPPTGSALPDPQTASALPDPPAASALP

Row | Binder | CAR expression% (cells stained by PE-labelled human CD7 protein) [%]
1 | B1 | 99.1
2 | B2 | 92.8
3 | B3 | 99.7
4 | B4 | 97.3
